Laboratory results as given in patent US20210403538A1.
Numbering of substitutions follows the chain as printed.

B1: EBOV-514 (antibody, V domains shown)
VH: QVQLQESGPGLVKPSQTLSLTCTVSGASITGGDDFWSWIRQPPGKGLEWIGFIHHSGNAYYRSSLKSRVHFSVDTSKDQFSLTLTSVTAADTAVYYCARDKAQAYGLLYHYHTDVWGKGTLVTVSS
VL: EIVMTQSPATLSVSPGERATLSCRASQSVSSNLAWYQQKPGLAPRLLIYGAFTRATDIPDRFSGSGSGTEFTLTISSLQSEDFAIYYCQYYNDWPPGYTFGQGTKLEIK
B2: EBOV-511 (antibody, V domains shown)
VH: QLQLQESGPGLVKPSETLSLSCTVSGDSISANNYFWGWIRQPPGKELEWIGSIHNSGSTYYNPSLKSRVTTSVDTSRTQFSLKLHSVTAADAAIYYCARHLAPISGVIFIPSFFDSWGQGTLVTVSS
VL: EIVMTQSPATLSVSPGERATLSCRASQSVSSNLAWYQQRPGQAPRLLIFDASTRATGVPARFSGSGSGTEFTLTISSLQSEDFALYYCQQYNDWPPRLTFGGGTKVEIK
B3: EBOV-442 (antibody, V domains shown)
VH: EVQLVESGGGLVKPGGSLRLSCTGSGGTGFTFKYAGMSWVRQAPGKGPEWIGRIKSRIDGGTTDYAAPVKDRFIVSRDDSRNTLYLQMNSLKTEDTAVYYCATGSGKGPSASFGESYYYYDFINVWGKGTTVTVSS
VL: ESVLTQSPGTLSLSPGERATLSCRASQSISRKYLAWYQQKPGQAPRLLIYGSSSRATGIPDRFSGSGSGTDFTLTISRLEPEDFAVYYCHQYESSPWTFGQGTKVEIK
B4: EBOV-451 (antibody, V domains shown)
VH: EVQLVESGGSVVRPGGSLRLSCAASGFKFDEYGMSWVRQAPGKGLEWVSGITWNGGVRTYADSVKGRFTISRDNAKNSVYLQMKSLRGEDTALYYCVSWGERYDAYFDYWGQGTLVTVSS
VL: EIVLTQSPGSLSLSPGERATLSCRASQSVNSRYFAWYQQRPGQAPRLLIYATSTRATGIPDRFSGSGSGTDFTLTISRLEPEDFAVYSCQQYGSSPYTFGQGTKLEIK
B5: EBOV-520 (antibody, V domains shown)
VH: QVQLQESGPGLGKPSETLSLSCTVSGASIRGYFWNWIRQPPGKGLEWIGYIHSTGSTNYNPSLKSRVTISVDTSKNQVSLNVNSVTAADTAVYFCARGAWNVATVYYYYGMDVWGQGTLVTVSS
VL: B4 VL with S10T, N30S, R32S, R40K, Y50S, A51G, T57P, S88F, S94N, P96L
B6: EBOV-446 (antibody, V domains shown)
VH: QVQLVQSGAEVKKPGASVKVSCKASGYTFTDYYIYWVRQAPGQGLEWMGWLNPNSGGTDYAQKFQGRVTMTRDTSIRTAYMDLSRLRSDDTAVYYCARGRRHGAYVDWGQGTLVTVSS
VL: DIQLTQSPSFLSASVGDRVTITCRASQGISTYLAWYQQKPGKAPNLLIYDTSTLQSGVPSRFSGSASGTEFTLTISSLQPEDFATYYCQQLNFYLGGLTFGQGTRLEIK
B7: EBOV-434 (antibody, V domains shown)
VH: QVQLVQSGAEVKKPGASVKVSCKASGYTFTGYYMFWVRQAPGQGLEWMGWINPNSGGTNYTQKFQGRVTMTRDTSISTAYMELSRLKSDDTAVYYCARDSGELLFVGSDVWGQGTLVTVSS
VL: DIQMTQSPSSVSASVGDRVTITCRASLDISYWLAWYQQKPGKAPKLLIYAASNLQSGVPSRFSGSGSGTDFTLTISSLQPEDFATYYCQQANSFPQTFGQGTRLELK
B8: EBOV-510 (antibody, V domains shown)
VH: QVQLQESGPGLVKPSQTLSLTCTVSGGSITSGDYYLTWVRQPPGKGLEWIGHIYYSGSTSYNPSLKSRLLMSVDTSKNQFSLRLSSVTAADTAVYYCARESDGDPSRLYFYFAMDVWGQGTLVTVSS
VL: QSALTQPASVSGSPGQSITISCTGTSSDVGGSYFVSWYQHHPGKAPKLMISEVSNRPSGVSNRFSGSKSGNTASLTISGLRTEDEADYYCSSYTSNTTLVFGGETKVTVL
B9: EBOV-507 (antibody, V domains shown)
VH: QVQLVQSGAEVKKPGASVKVSCKASGYTFNNYLINWVRQAPGQGLEWMGWINPHSGGTEYAQQFQGRLTVTRDTSIRTAYMELRGLTFDDSAMYYCWIWFRSETFDFWGQGTLVTVSS
VL: DIQMTQSPSAMSASVGDRVTITCRASQDISNYLAWFQQKPGQGPKRLIFEASILHSGVPSRFSGSGSGTEFTLTISSLQPEDFATYYCLQHNTYLTFGQGTKVEIK
B10: EBOV-508 (antibody, V domains shown)
VH: QVQLVQSGAEVKKPGASVKVSCKASGYTFINYYMHWVRQAPGQGLEWMGTINPSTGRPNYAQKFQGRVTLTRDTSTTTVDMELSSLTSEDTAVYYCVSFQFYFDYWGQGTLVTVSS
VL: DIQMTQSPSAMSPSVGDRVTITCRASQGINNYLAWFQQKPGKVPKRLIYAASNLQSGVPSRFSGSGSGTEFTLTISSLQPEDFATYYCLQHNSYPWTFGQGTKVEIN
B11: EBOV-517 (antibody, V domains shown)
VH: EVQLVESGGGLVQPGGSLRLSCGASGFTFNKYWMTWVRQAPGKGLEWVANINQDGSEKYFAESVKGRFTVSRDNAKNSLYLQMNSLRAEDTAVYYCARGASIEVEILYYYHMDVWGKGTLVTVSS
VL: EIVMTQSPATLSVSPGERATLSCRASQSITTHLAWYQQKPGQAPRLLIYDTSTRATGIPARFSGSGSGTEFTLTISNMQSEDFAVYYCQQYHTWPPLTFGGGTKVEIK
B12: EBOV-524 (antibody, V domains shown)
VH: QVQLVESGGGVVQPGGSLRLSCAASGFKFSTYGMNWVRQVPGQGLEWVSFVRHDGSNKYYSDSVKGRFTIFRDNSNNKLYLQMNNLRAEDTAVYYCAKDVLDCSRADCFIYYYYMDVWGKGTLVTVSS
VL: DIQMTQSPSSVSASPGDRVTITCRASQTISGWLAWYQQKPGKAPKLLIYDVSTLQSGVPSRFSGGGSGTEFTFTISSLQPEDYATYFCQQGNRIPLSFGGGTRVEIK
B13: EBOV-518 (antibody, V domains shown)
VH: QVTLKESGPTLVKPTQTLTLTCTFSGFSMNSSGMSVTWIRQPPGKALECLALIYWDDDKWYGPSLETRVTITKDASKNQVVLTMTNMDPVDTATYYCAHSGGLVAGAFDYWGQGTLVTVSS
VL: EIVMTQSPDSLTVSLGERATINCRSSQSVLYRVNSKNYLAWYQQKAGQTPKLIINWASTRESGVPDRFSGSGSGTDFTLTISSLQAEDVAVYYCQQYYNSPRTFGQGTKVEIK

Biological target: MARV GP [change] (Lake Victoria marburgvirus) (UniProt Q1PD50)
Assay: not given

Binder | EC50 [µg/mL]
B1 | > 10
B2 | > 10
B3 | > 10
B4 | > 10
B5 | > 10
B6 | > 10
B7 | > 10
B8 | > 10
B9 | > 10
B10 | > 10
B11 | > 10
B12 | > 10
B13 | 0.78

Biological target: SUDV GP [change] (Sudan ebolavirus) (UniProt Q7T9D9)
Assay: not given

Binder | EC50 [µg/mL]
B1 | 0.015
B2 | 0.387
B3 | 0.006
B4 | 0.003
B5 | 0.136
B6 | 0.722
B7 | 1.11
B8 | 3.09
B9 | 0.002
B10 | 0.003
B11 | 1.69
B12 | 0.701
B13 | 0.352

Biological target: BDBV GP [change] (Bundibugyo ebolavirus (BDBV), strain 200706291 Uganda)
Assay: ELISA, coated recombinant GP ΔTM

Binder | EC50 [µg/mL]
B1 | 0.01
B2 | 0.289
B3 | 0.003
B4 | 0.007
B5 | 0.072
B6 | 0.002
B7 | 0.415
B8 | 0.261
B9 | 0.004
B10 | 0.005
B11 | 0.865
B12 | 0.146
B13 | 2.63

Biological target: EBOV GP [change] (Zaire ebolavirus (EBOV), strain Makona)
Assay: ELISA, coated recombinant GP ΔTM

Binder | EC50 [µg/mL]
B1 | 0.007
B2 | 0.094
B3 | 0.001
B4 | 0.001
B5 | 0.012
B6 | 0.009
B7 | 0.304
B8 | 0.143
B9 | 0.001
B10 | 0.002
B11 | 0.042
B12 | 0.123
B13 | 0.283
